Assays:
[1] = molecular target: collagen VI monomer with the murine collagen VI α3 chain (N9-C5) carrying the R1061Q mutation (mouse | human (endogenous in SaOS-2)); assay: non-reducing agarose/polyacrylamide composite gel electrophoresis with immunoblot; culture medium (4-14 days) and cell extracts of transfected SaOS-2 cells, SDS loading buffer with 2 M urea, non-reducing, 0.5% agarose/2.4% polyacrylamide; detected with an antibody against the α3 C terminus; sizes from purified collagen VI as a standard; monomers to tetramers
[2] = molecular target: collagen VI monomer with the wild-type murine collagen VI α3 chain (N9-C5) (mouse | human (endogenous in SaOS-2)) (UniProt P12109); assay: as above

stoichiometry N [1]	stoichiometry N [2]	Substance
4		collagen VI monomer with the murine collagen VI α3 chain (N9-C5) carrying the R1061Q mutation (from UniProt P12109 20-1028; P12110 21-1019) (complex)
	4	collagen VI monomer with the wild-type murine collagen VI α3 chain (N9-C5) (from UniProt P12109 20-1028; P12110 21-1019) (complex)

— PMC3919171
